# From publication PMC4007762
# Key:
# Details in all cases: reference: wild-type YFP-p120-1A; sites Y335
# VAV2 (endogenous) = VAV2 (endogenous) (UniProt P52735); assay: anti-YFP immunoprecipitation, VAV2 blot
# E-cadherin = E-cadherin (UniProt P12830); assay: anti-YFP immunoprecipitation, E-cadherin blot
# cortactin = cortactin (UniProt Q14247); assay: anti-YFP immunoprecipitation, cortactin blot
substance,measurement,setting,value
p120-1A (transfected YFP- or HA-tagged) (from UniProt P30999) Y335F,binding against the reference,VAV2 (endogenous),weaker
same,binding against the reference,E-cadherin,stronger
same,binding against the reference,cortactin,weaker
